Measurements as given in patent EP2170953B1 (AC Immune S.A., dated 2015).

What was measured:
[1] = biological target: Aβ1-42 (low-molecular weight, HFIP-treated, Th-T aggregation assay); experiment: cell-based or functional assay
[2] = biological target: pre-aggregated Aβ1-42 (Th-T disaggregation assay); experiment: cell-based or functional assay
[3] = biological target: Aβ1-42 library peptide 12; experiment: peptide library ELISA, Ab 10 µg/ml
[4] = biological target: Aβ1-42 library peptide 19; experiment: peptide library ELISA, Ab 10 µg/ml
[5] = biological target: Aβ1-42 library peptide 9; experiment: peptide library ELISA, Ab 10 µg/ml
[6] = biological target: Aβ1-42 library peptide 4; experiment: peptide library ELISA, Ab 10 µg/ml
[7] = biological target: Aβ1-42 library peptide 26; experiment: peptide library ELISA, Ab 10 µg/ml
[8] = biological target: Aβ1-42 library peptide 21; experiment: peptide library ELISA, Ab 10 µg/ml
[9] = biological target: Aβ1-42 library peptide 2; experiment: peptide library ELISA, Ab 10 µg/ml
[10] = biological target: Aβ1-42 library peptide 18; experiment: peptide library ELISA, Ab 10 µg/ml
[11] = biological target: Aβ1-42 library peptide 16; experiment: peptide library ELISA, Ab 10 µg/ml
[12] = biological target: Aβ1-42 library peptide 29; experiment: peptide library ELISA, Ab 10 µg/ml
[13] = biological target: Aβ1-42 library peptide 33; experiment: peptide library ELISA, Ab 10 µg/ml
[14] = biological target: Aβ1-42 library peptide 3; experiment: peptide library ELISA, Ab 10 µg/ml
[15] = biological target: Aβ1-42 library peptide 28; experiment: peptide library ELISA, Ab 10 µg/ml
[16] = biological target: Aβ1-42 library peptide 7; experiment: peptide library ELISA, Ab 10 µg/ml
[17] = biological target: Aβ1-42 library peptide 27; experiment: peptide library ELISA, Ab 10 µg/ml
[18] = biological target: Aβ1-42 library peptide 11; experiment: peptide library ELISA, Ab 10 µg/ml
[19] = biological target: Aβ1-42 library peptide 23; experiment: peptide library ELISA, Ab 10 µg/ml
[20] = biological target: Aβ1-42 library peptide 30; experiment: peptide library ELISA, Ab 10 µg/ml
[21] = biological target: Aβ1-42 library peptide 1; experiment: peptide library ELISA, Ab 10 µg/ml
[22] = biological target: Aβ1-42 library peptide 5; experiment: peptide library ELISA, Ab 10 µg/ml
[23] = biological target: Aβ1-42 library peptide 17; experiment: peptide library ELISA, Ab 10 µg/ml
[24] = biological target: Aβ1-42 library peptide 13; experiment: peptide library ELISA, Ab 10 µg/ml
[25] = biological target: Aβ1-42 library peptide 31; experiment: peptide library ELISA, Ab 10 µg/ml
[26] = biological target: Aβ1-42 library peptide 8; experiment: peptide library ELISA, Ab 10 µg/ml
[27] = biological target: Aβ1-42 library peptide 6; experiment: peptide library ELISA, Ab 10 µg/ml
[28] = biological target: Aβ1-42 library peptide 32; experiment: peptide library ELISA, Ab 10 µg/ml
[29] = biological target: Aβ1-42 library peptide 22; experiment: peptide library ELISA, Ab 10 µg/ml
[30] = biological target: Aβ1-42 library peptide 15; experiment: peptide library ELISA, Ab 10 µg/ml
[31] = biological target: Aβ1-42 library peptide 25; experiment: peptide library ELISA, Ab 10 µg/ml
[32] = biological target: Aβ1-42 library peptide 20; experiment: peptide library ELISA, Ab 10 µg/ml
[33] = biological target: Aβ1-42 library peptide 24; experiment: peptide library ELISA, Ab 10 µg/ml
[34] = biological target: Aβ1-42 library peptide 10; experiment: peptide library ELISA, Ab 10 µg/ml
[35] = biological target: Aβ1-42 library peptide 14; experiment: peptide library ELISA, Ab 10 µg/ml

Chain of Aβ1-42 (low-molecular weight, HFIP-treated, Th-T aggregation assay) (peptide, as listed by the source, form in doubt): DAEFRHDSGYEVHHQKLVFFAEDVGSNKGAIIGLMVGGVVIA
Chain of pre-aggregated Aβ1-42 (Th-T disaggregation assay) (peptide, as listed by the source, form in doubt): as above

B1: ACI-11-Ab-9 (antibody, V domains shown)
VH: QVQLQQSDAELVKPGASVKISCKVSGYTFTDHTIHWMKQRPEQGLEWIGYIYPRDGSTKYNEKFKGKATLTADKSSSTAYMQLNSLTSEDSAVYFCARDYGYAFDYWGQGTTLTVSS
VL: QAVVTQESALTTSPGGTVILTCRSSTGAVTTSNYANWVQEKPDHLFTGLIGGTSNRAPGVPVRFSGSLIGDKAALTITGAQTEDDAMYFCALWYSTHYVFGGGTKVTVL
notes: also called FG1F9E4
- inhibition of Aβ1-42 aggregation (Th-T fluorescence), molar ratio 1:10 [1]: 69%
- inhibition of Aβ1-42 aggregation (Th-T fluorescence), molar ratio 1:100 [1]: 34%
- disaggregation of pre-aggregated Aβ1-42 (Th-T fluorescence), molar ratio 1:10 [2]: 52%
- disaggregation of pre-aggregated Aβ1-42 (Th-T fluorescence), molar ratio 1:100 [2]: 22%
- O.D. [3]: 0.24 O.D.
- O.D. [4]: 0.1 O.D.
- O.D. [5]: 0.11 O.D.
- O.D. [6]: 0.11 O.D.
- O.D. [7]: 0.12 O.D.
- O.D. [8]: 0.1 O.D.
- O.D. [9]: 0.1 O.D.
- O.D. [10]: 0.11 O.D.
- O.D. [11]: 0.14 O.D.
- O.D. [12]: 0.2 O.D.
- O.D. [13]: 0.11 O.D.
- O.D. [14]: 0.12 O.D.
- O.D. [15]: 0.12 O.D.
- O.D. [16]: 0.11 O.D.
- O.D. [17]: 0.13 O.D.
- O.D. [18]: 0.11 O.D.
- O.D. [19]: 0.11 O.D.
- O.D. [20]: 0.11 O.D.
- O.D. [21]: 0.1 O.D.
- O.D. [22]: 0.11 O.D.
- O.D. [23]: 0.13 O.D.
- O.D. [24]: 0.17 O.D.
- O.D. [25]: 0.12 O.D.
- O.D. [26]: 0.11 O.D.
- O.D. [27]: 0.11 O.D.
- O.D. [28]: 0.12 O.D.
- O.D. [29]: 0.1 O.D.
- O.D. [30]: 0.14 O.D.
- O.D. [31]: 0.11 O.D.
- O.D. [32]: 0.1 O.D.
- O.D. [33]: 0.1 O.D.
- O.D. [34]: 0.13 O.D.
- O.D. [35]: 0.16 O.D.

B2: ACI-12-Ab-11 (antibody, V domains shown)
VH: QVQLQQSDAELVKPGASVKISCKVSGYTFTDHTIHWMKQRPEQGLEWIGYIYPRDGSTKYNEKFKGKATLTADKSSSTAYMQLNSLTSEDSAVYFCARDYGYAFDYWGQGTTLTVSS
VL: QAVVTQESALTTSPGGTVILTCRSSTGAVTTSNYANWVQEKPDHLFTGLIGGTSNRAPGVPVRFSGSLIGDKAALTITGAQTEDDAMYFCALWYSTHYVFGGGTKVTVL
notes: also called FK2A6A6
- inhibition of Aβ1-42 aggregation (Th-T fluorescence), molar ratio 1:10 [1]: 66%
- inhibition of Aβ1-42 aggregation (Th-T fluorescence), molar ratio 1:100 [1]: 30%
- disaggregation of pre-aggregated Aβ1-42 (Th-T fluorescence), molar ratio 1:10 [2]: 54%
- disaggregation of pre-aggregated Aβ1-42 (Th-T fluorescence), molar ratio 1:100 [2]: 18%
- O.D. [3]: 0.21 O.D.
- O.D. [4]: 0.1 O.D.
- O.D. [5]: 0.1 O.D.
- O.D. [6]: 0.1 O.D.
- O.D. [7]: 0.12 O.D.
- O.D. [8]: 0.09 O.D.
- O.D. [9]: 0.1 O.D.
- O.D. [10]: 0.1 O.D.
- O.D. [11]: 0.14 O.D.
- O.D. [12]: 0.11 O.D.
- O.D. [13]: 0.11 O.D.
- O.D. [14]: 0.11 O.D.
- O.D. [15]: 0.11 O.D.
- O.D. [16]: 0.1 O.D.
- O.D. [17]: 0.12 O.D.
- O.D. [18]: 0.11 O.D.
- O.D. [19]: 0.1 O.D.
- O.D. [20]: 0.11 O.D.
- O.D. [21]: 0.1 O.D.
- O.D. [22]: 0.1 O.D.
- O.D. [23]: 0.12 O.D.
- O.D. [24]: 0.15 O.D.
- O.D. [25]: 0.11 O.D.
- O.D. [26]: 0.1 O.D.
- O.D. [27]: 0.1 O.D.
- O.D. [28]: 0.11 O.D.
- O.D. [29]: 0.1 O.D.
- O.D. [30]: 0.1 O.D.
- O.D. [31]: 0.11 O.D.
- O.D. [32]: 0.1 O.D.
- O.D. [33]: 0.1 O.D.
- O.D. [34]: 0.1 O.D.
- O.D. [35]: 0.12 O.D.
